B1: TPR t1 (parent)
chain: GACCAAUCUGCCCUCAGAGCUCGAGAACAUCUUCGGAUGCAGAGGAGGCAGGCUUCGGUGGCGCGAUAGCGCCAACGUCCUCAACCUCCAAUGCAUCCCACCACAUGAUGAUGCCUGAAGAGCCUUGGUUUUUUG

Variants of: B1
Experiment: polymerase ribozyme fitness, log enrichment relative to wild type (log ratio); higher = more active; in vitro selection for triplet polymerase activity
In short: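 A single round of triplicate in vitro selection, including frozen incubation at −7 °C, was applied to PCR-built, transcribed mutant libraries of each subunit of a heterodimeric triplet polymerase ribozyme. Illumina sequencing of input and output libraries retained genotypes with ≥10 input reads and ≥1 read per output. Fitness is the base-2 logarithm of genotype enrichment divided by wild-type enrichment, from inverse-variance-weighted replicate averages.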

Variant	polymerase ribozyme fitness (log ratio)
GACCAAUCUGCCCUCAGAGCUCGAGAACAUCUUCGGAUGCAGAGGAGGCAGGCUUCGGUGGCGCGAUAGCGCCAACGUCCUCAACUUCCAAUGCAUCCCACCACAUGAUGAUGCCUAAAGAGCCUUGGUUUUUUG [C86U G117A]	-1.56
GACCAAUCUGCCCUCAGAGCUCGAGAACAUCUUCGGAUGCAGAGGAGGCAGGCUUCGGUGGCGCGAUAGCACCAACGUCCUCAACCUCCAAUGCAUCCCACCACAUGAUGAGGCCUGAAGAGCCUUGGUUUUUUG [G71A U112G]	-1.07
GACCAAUCUGCCCUCAGAGCUCGAGAACAUCUUCGGAUGCAGAGGAGGCAGGCUUCGGUGGCCCGAUAGCGCCAAUGUCCUCAACCGCCAAUGCAUCCCACCACAUGAUGAUGCCAGAAAAGCCUUGGUUUUUUG [G63C C76U U87G U116A G120A]	-4.12
GACCACUCUGCCCUCAGAGCUCGAGAACAUCUUCGGAUGCAGAGGAGGCAGGCUUGGGUGGCGCGAUAGCGCCAACGUCCUCAACCUCCAAUGCAUCCCACCACAUGAUGAUGCCUGAAGAGCCUUGGUUUUUUG [A6C C56G]	-0.703
GACCAAUCUGCCCUCAGAGGUCGAGAACAUCUUCGGAUGCAGAUGAGGCAGGCUUAGGUGGCGCGAUGGCGCCAACGUCCUCAACCUCCAAUGCAUCACACCACAUGAUGAUGUCUGAAGAGCCUUGGUUUUUUG [C20G G44U C56A A68G C98A C114U]	-6.77
GACCAAUCUGGCCUCAGAGCUCGAGAACAUCUUCCGAUGCAGAGGAGGCAGGCUUCGGUGGCGCGAUAGCUCCAACGUCCUCAACCUCCAAUGCAUCCCACCACAUGAUUAUGCCUGAAGAGCCUUGGUUUUUUG [C11G G35C G71U G110U]	-7.04
GACCAAUGUGCCCUCAGAGCUCGAGAACAUCUUCGGAUGCGGAGGAGGCAGGGUUCGGUGGCGCGAUAGCGCCAACGUCCUCAACCUCCAAUUCAUCCCACCACAUGAUGAUGCCUGAAGAGCCUUGGUUUUUUG [C8G A41G C53G G93U]	-0.406
GACCAAUCUGCCCUCAGAGCUCGAGAACAUCUUCGGAUGCAGAGGAGGGAGGCUUCGGUGGCGCGAUAGCGCCAACGUCCUCAACCUCCAAUGCAUCCCACCACAUGAUGAUGCCUGAAUAGCCUUGGUUUUUUG [C49G G120U]	0.305
GACCAAUCUGCCCUCAGAGCUCGAGAACAUCUUCGGAUGCAGAGGAGGCAGGCUUCGGUCGCGCGAUAGCGCCAACGUCCUCAACAUCCAAUGCAUCCCACCACAUGAUGAUGCCUCAAGAGUCUUGGUUUUUUG [G60C C86A G117C C123U]	-6.38
GACCAAUGUGCCCUCAGAGCUCGAGAACAUCUUCGGAUGCAGAGGAGGAAGGCUUCGGUGGCGCGAUAGCGCCAACGUCCUCAACCUCCAAAGCAUCCCACCACAUGAUGAUGCCUGAAGAGUCUUGGUUUUUUG [C8G C49A U92A C123U]	-1.03
GACCAAUCUGCACUCAGAGCUCGAGAACAUCUUCGGAUGCAGAGGAGGCAGGCUUCGGUGGCGCGAUAGCGCCAACGUCCUCAACCUCCAAUGCAUCCCACCACAUGAUGAUGCCUUAAGAGCCUUGGUUUUUUG [C12A G117U]	-1.72
GACCCAUCUGCCCUCAGAGCUCGAGAACAUCUUCGGAUGCAGAGGAGGCCGGCUUCGGUGGCGCGAUAGCGCCAACGUCCUCAACCUCCAAUGCAGCCCACCACAUGAUGAUGCCUGAAGAGCCUUGGUUUUUUG [A5C A50C U96G]	-1.64
GACCAAUCUGCCCUCAGAGCUCGAGAACGUCUUCGGAUGCAGAGGAGGCAGGCUUCGGUGGCGCGAUAGCGCCAACGUCCUCAACCUCCAGUGCAUCCCACCACAUGAUGAUACCUGAAGAGCCUUGGUUUUUUG [A29G A91G G113A]	-2.3
GACCAAUGUGUCCUCAGAGCUCGAGAACAUCUUCGGAUGCAGAGGAGGCAGGCUUCGGUGGCGCGAUAGCGCCAACGUCCUCAACCUCCAAUGCAUCCCACCACAUGAUGAUGCCUGAAGAGCAUUGGUUUUUUG [C8G C11U C124A]	2.24
GACCAAUCUGCCCUCAGAGCUCGGGAACAUCUUCGCAUGCAGAGGAGGAAGGCUUCGGUGGCUCGAUAGCGCCAACGUCCUCAACCUCCAAUGCAUCCCACCACAUGAUGAUGCCUGAAGAGCCUUGGUUUUUUG [A24G G36C C49A G63U]	-4.77
GACCAAUCUGCCCUCAGAGUUCGAGAACAUCUUCGGAUGGAGAGGAGGCAGGCUUCGGUGGCCCGAUAGCGCCAACGUCCUCAACCUCCAAUGCAUCCCACCACAUGAUGAUGCCUGAAGAGCCUUGGUUUUUUG [C20U C40G G63C]	-4.09
GACCAAUCUGCCCUCAGAGCUCGAGAACAUCUUCGGAUACAGAGGAGGCAGGCUUCGGUGGCGCGAUAGGGCCAACGUCCUCAACCUCCAAUGCAUCCCACCACAUGAUGAGGCCUGAAGAGCCUUGGUUUUUUG [G39A C70G U112G]	-4.63
GACCAACCUGCCCUCAGAGCGCGAGAACAUCUUCGGAUGCAGAGGAGGCAGGCUUCGGUGGCGCGAUAGCGCCAACGUCCUCAACCUCCAAUGCAGCCCACCACAUGAUGAUGCCUGAAGAGCCUUGGUUUUUUG [U7C U21G U96G]	-1.67
GACCAAUCUGCCCUCAGAGCUCGAGAACAUCUUCGGAUGCGGAGGAGGCAGGAUUCGGUGGCGAGAUAGCGCCAACGUCCUCAACCUCCAAUGCAUCCCACCACAUGAUGAUGCCUGAAGGGCCUUGGUUUUUUG [A41G C53A C64A A121G]	-4.97
GACCAAUAUGCCCUCAGAGCUCGAGAACAUCUUCGGAUGCAGAGGAGGCAGGCUUCGGUGGCGCGAUAGCGCCAACGUCCUCAACCUCCAAUGCAUCCCACCACAUGAUGAUGCCUGAAGUGCCUUGGUUUUUUG [C8A A121U]	2.6
GACCAAUGUGCCCUCAGAGCUCGAGAACAUCUUCGGAUGCAGAGGAGGCAGGCUUCGGUGGCGCGAUAGCGCCAACGUCCUCAACCUCCAAUGCAUCCCACCACAUUAUGAUACCUGAAGAGCCUUGGUUUUUUG [C8G G107U G113A]	-3.41
